Assay results published in article PMC6775164.
“And” between values parts separate entries of the source, which are not always exact repeats. Equal entries are not always repeated.

Columns and labels:
[1] = molecular target: P74-26 major capsid protein (gene product 86) (bacteriophage P74-26); experiment: cryo-EM structure; single-particle reconstruction of the capsid of purified P74-26 virions with icosahedral symmetry imposed; virions in 50 mM Tris pH 8.0, 10 mM NaCl, 10 mM MgCl2; 2.8 Å (0.143 FSC)
[2] = molecular target: P74-26 decoration protein (gene product 87) (bacteriophage P74-26); experiment: as above

Substance	stoichiometry N [1]	stoichiometry N [2]
P74-26 major capsid protein (gene product 86) (natural protein)	5 and 6	–
P74-26 decoration protein (gene product 87) (natural protein)	–	3
